Assay results taken from the RNAGym collection of RNA variant scans (doi:10.7554/elife.90254).

B1: LINE1-mini (parent)
chain: GGCAGAGCUCAACACAGCGUGGCAAAGUGGCUGUGGCUAGACUGCC

Variants of: B1
Test: self-cleavage, relative activity (ratio to wild type); higher = more cleavage; in vitro, sequencing; the parent is a self-cleaving ribozyme

First: GGCAGAGCUCAACACAGCGUGGCCUAGUGGCUGUGGCUAGACUGCC
Second: GGCAGAGCUCAACACAACGUGGAAAAGUGGCUGUGGCUAGACUGCC
The self-cleavage of the first is higher: 1.01 for the first, 0.29 for the second.

Compared with GGCAGAGCUCAACACAGCGUGGCAAAGUGGCUGUGGCUGGACAGCC, GGCAGAGCUCAACACAGCGUGGCGAAGUGGCCGUGGCUAGACUGCC is higher in self-cleavage: 0.04 for the first, 0.24 for the second.

Going from GGCUGAGCUCAACACAGCGUGGCAAAGUGGCGGUGGCUAGACUGCC to GGCAGAGCUCGACAAAGCGUGGCAAAGUGGCUGUGGCUAGACUGCC, the self-cleavage falls from 0.14 to 0.02.

First: GGCAGGGCUCAACACAGCGUGGCAAAGUGGCUGUGGCUAGACUCCC
Second: GGCGGAGCUCAACACAGCGUGGCAAAGUGGCUGUGGCUAGACUGCC
The self-cleavage of the first is lower: 0.14 for the first, 0.5 for the second.

Going from GGCAGAGCUCAACACAGCGUGGCUAAGUGGCCGUGGCUAGACUGCC to GGCAGAGCUCAACACAGCGUGGCAAAGUGGCUGUGGCUAGGCUUCC, the self-cleavage falls from 0.2 to 0.06.

Compared with GACAGAGCUCAACACAGCGUGGCAAAGUGGCUGUGGCUUGACUGCC, UGCAGAGCUCAACACAACGUGGCAAAGUGGCUGUGGCUAGACUGCC is lower in self-cleavage: 0.76 for the first, 0.1 for the second.

Compared with GGCAGAGCUCAACACAGCGUGGCAAAAUGGCGGUGGCUAGACUGCC, GGCAGAGCUCAACACAGGGUGGCAACGUGGCUGUGGCUAGACUGCC is higher in self-cleavage: 0.21 for the first, 0.86 for the second.

First: GGCAGAGCUCAACUGAGCGUGGCAAAGUGGCUGUGGCUAGACUGCC
Second: GUCAGAGCUCAACACAGCGUGGCAAAGUGGCUGUGGCUAGACGGCC
The self-cleavage of the first is higher: 0.04 for the first, 0.02 for the second.

First: GGCAGAGCUCAGCACAGCGUGGCAAAUUGGCUGUGGCUAGACUGCC
Second: GGCAGAGCUCAACACAGCGUGGCAAAGGGGCUGUGGCGAGACUGCC
The self-cleavage of the first is higher: 0.04 for the first, 0.02 for the second.

Compared with GGCAGAGCUCAACACAGCGUGGCAAAUUGGCUGUGGCUAUACUGCC, GGGAGAGCUCAACACAGCGUGGCAAAGUGGCUGUGGCUAGACUGCG is higher in self-cleavage: 0.13 for the first, 0.35 for the second.

Compared with GGCAGAGCUCAACACAGCGUGGCAAAGUGGCUGCGGCUAAACUGCC, GGCAGAGCUCAACACUGCGUGGCAAAGUGGCGGUGGCUAGACUGCC is higher in self-cleavage: 0.11 for the first, 0.29 for the second.

Compared with GCCAGUGCUCAACACAGCGUGGCAAAGUGGCUGUGGCUAGACUGCC, GGAAGAGCUCAACACAGCGUGGCAAAGUGGCCGUGGCUAGACUGCC is higher in self-cleavage: 0.14 for the first, 0.31 for the second.

First: GGCAGAGCUCAACACAGCCUGGCAAAGUGGCUGUGGCUAGACUGGC
Second: GGCAGAGCUCAACACAGCGUGCCAAAGUGGCGGUGGCUAGACUGCC
The self-cleavage of the first is lower: 0.17 for the first, 0.2 for the second.

Going from GGCAGAGCUCAACAAAGCCUGGCAAAGUGGCUGUGGCUAGACUGCC to GGCAGAGCUCAACACAGCGUGGCAAUGUGGCUGUGGCUAGAAUGCC, the self-cleavage rises from 0.14 to 0.29.

Compared with GGCUGAGCUCAACACAGCGUGGCAAAGUGGCUGUGGCUAGACUACC, CGCAGAGCUCAACAGAGCGUGGCAAAGUGGCUGUGGCUAGACUGCC is lower in self-cleavage: 0.17 for the first, 0.03 for the second.

First: GGCAGAGCUCAACACAGCGUGGCAAAGUGGCUGUGCCGAGACUGCC
Second: CGCAGAGCUCAACACAGCGUGGCAAUGUGGCUGUGGCUAGACUGCC
The self-cleavage of the first is lower: 0.02 for the first, 0.12 for the second.

Compared with GGCAGAGCUCAACACAGUGUGGCAAAGUGGCUGAGGCUAGACUGCC, GGCAGAGCUCAACACAGCGUGGCAAAGUGGCUGUGGCUUGACGGCC is lower in self-cleavage: 0.07 for the first, 0.02 for the second.

First: GGCAGAGCUCAACACAGCGUGGCAAAGUGGCUUUGGCUACACUGCC
Second: GGCAGAGCUCAACACAGCGGGGCAAAGUGGCUGUGGCUAGUCUGCC
The self-cleavage of the first is lower: 0.05 for the first, 0.42 for the second.

Compared with GGCAGAGCUCAUCACUGCGUGGCAAAGUGGCUGUGGCUAGACUGCC, GGCAGAGCUCAACACAGCGUGGCACAGUGGCUGUGGCUAGACAGCC is higher in self-cleavage: 0.07 for the first, 0.09 for the second.

First: GGCAGAGCUCAACACAGCGUGGCAAAGUGAGUGUGGCUAGACUGCC
Second: GGCAGAGCUCUACACAGCGUGGCAAAGUGGCUGUGGCUAGACCGCC
The self-cleavage of the first is higher: 0.09 for the first, 0.04 for the second.

Compared with GGCAGAGCUCACCACAGCGUGGCAAAGUGGCUGUGGCUAGACUGUC, GUCAGAGCUCAACACAGCGUGGCAAGGUGGCUGUGGCUAGACUGCC is higher in self-cleavage: 0.03 for the first, 0.13 for the second.

First: GGCAGAGCUCAACACAGCCUGGCAAAGCGGCUGUGGCUAGACUGCC
Second: GGCGGAGCUCAACACAGCGUGGCAAAGUGGCUCUGGCUAGACUGCC
The self-cleavage of the first is higher: 0.6 for the first, 0.07 for the second.

Compared with GGCAGAGCUCAACACAGCGUGGAAAAGUGGCUGUGACUAGACUGCC, GGUAGAGCUCAACACAGCGUGGCAAAGUGGCUGUGUCUAGACUGCC is higher in self-cleavage: 0.17 for the first, 0.22 for the second.

Going from GGGAGAGCUCAACACAGCGAGGCAAAGUGGCUGUGGCUAGACUGCC to GGCAGAGCUCAACACAGCGUGGAAAAGGGGCUGUGGCUAGACUGCC, the self-cleavage rises from 0.35 to 0.44.

First: GGCAGAGCUCAAAACAGCGUGGCAAAGAGGCUGUGGCUAGACUGCC
Second: GGCAGAGCUCAACACAGCGGGGCAAAGUGGCUGUGGCUAGACUGCC
The self-cleavage of the first is lower: 0.07 for the first, 0.69 for the second.

Compared with GGCAGAGCUUAACACAGCGUGGCAUAGUGGCUGUGGCUAGACUGCC, GACAGAGCUAAACACAGCGUGGCAAAGUGGCUGUGGCUAGACUGCC is lower in self-cleavage: 0.48 for the first, 0.07 for the second.

Compared with GGCCGAGCUCAACACAGCGUGGCAAAGUGACUGUGGCUAGACUGCC, GGCAGAGCUCAACCCAGCGUGGCAAAGUGGCUGUGGCUAGACUGAC is lower in self-cleavage: 0.24 for the first, 0.08 for the second.

Going from CGCAGAGCUCAACACAGCGUGCCAAAGUGGCUGUGGCUAGACUGCC to GGCAGAGCUGAAAACAGCGUGGCAAAGUGGCUGUGGCUAGACUGCC, the self-cleavage falls from 0.19 to 0.03.
